Assay results as given in the DeepSol protein solubility set.

test: soluble on expression in E. coli; label from the status in PepcDB or PDB records

| Sequence | soluble on expression in E. coli |
| --- | --- |
| MSLAGSWETYTMKVPSEKNLPTTKVVLKMPKDVEFQQYEPIPGWKVSTQKHDDKSVSVTWEATDGGIQEGQFQQFTFVAKNPDKAEEAAWDAYQYYKDGSIVEWTGDEDADTPHSITNITSAKQVTDEHGATKTEDDSENSGSSALDITAMVLSAAAIILSVAALVKKKRAEGHHHHHH | soluble |
| MSLSAQGSQDGRFAGQLALVTGASRGIGAATAKALAAQGAHVVLVARTAKELEKVEEEIFEAGGSATIAPVDLSEPEGIARLATAISGRWSALDVLVINAAAFPTLTPVWQIDSREFNNALTLNVLATQALLAGFDGMLKKSKDARVIGVTSSVGATPRAYWGAYGASKAAFDVLLDCYAQEVRNTSAVRVAILDPGATRTKMRARAYPGENPESVKAPEVVAERMVALLGEQFSSPHRERVNQDEGHHHHHH | soluble |
| MCKLAGPQHSEIGFPISTDNASWRGPNIEAGGKSAYNNVQVGE | not soluble |
| MGSDKIHHHHHHMLWYDSRAQRLRERSAVWAQNQKTDPDFDGLPPKYAEELQKNILGTVVLPGDPEYDTDRMLSNPRFSAYPQVIVYCEVETDVAECLRVARALSMAVVVRSGGHSTAGFSSQNGFLIDVSRMNDVCISPEALRAWVGPGTNFGKFNAKLLPYDLHTPGGACPDVCVGGYMQGGGYGFTARIFGMNCDQVEEIRVMMTDGRIVHANAELNPDLFWAVRGGTGSNFGVLLGVKYRLYRGSTFAGFSVRWSMQTDAGVQDTATSLAWLQENFMRTGAPDTMGYQMIWAFEGPEGQAKEPVLLMRGMYRGTREELQEKLAPVLALPGATLQAIYDPQQYIDLNRILLSEPYEVPEFPADMTPMPPPEAKISRYVAKPIDAAGWKALLDYFRTSPSPYTIAAMEIYGGAIARMPKGENAFFHRDVYCDLFFDVFWLTEQEKETMLAFIAGWEAAFAPHWTGQSYQNYPSPDNPGFADEYWGDTYWLLRLIKHKYDPINLLRFPQSIQPLEWHPPGPGFPPGFRGFEDPIQAIAG | not soluble |
| MGSDKIHHHHHHEYKNVNEIIVEELEIPVPLGDPFILLHNGTYYAYGTHSDEGIEVYISDNLKTWKYKGLALNKKDSWADRWFWAPEVYEVNGKFYMYYSADEHICVAVADSPVGPFIQNKQEPMIVEEKCIDNSFFMDDDGTPYLSFVRFNDGNNVWIAELEKDLITLKKETMRPCIHVSQAWEEVWPRVNEGSYILKHNGIYYMTYSANSYESPFYGVGCATATDIMGEWAKYDENPLLQNPGGLVGVGHSAMFTDKEGKLRIVFHAHKDKSNIHPRAMYIGTVNFENVNGTDRMRISKEYITPKLLQ | not soluble |
| MSLYFSGEPAQIAEIKRLASGAVTPLYRRATNEGIQLFLAGSAGLLQTTEDVRFEPCPGLTAAGRGVVSPENIAFTRWLTHLQDGVLLDEQNCLMLHELWLQSGTGRRRWEELPDDARESITALFTPKRGDWCDIWSNEDVSVWWNRLCDNVLPEKTMPFDLLTVLSTRLDVEVNGFNGGVLNGVPSAYHWYTEQYGVKWPCGYEVNISSQGDNFIQVDFDTPWCQPESDVIAVLSRRFSCMLEHWYAGQGCNFCGWQRYERGELVDVLWGELEWSSPTDDDELPEVTAPEWIVDKVAHYGGEGHHHHHH | not soluble |
| MSLRYSKLTMLIPCALLLSACTTVTPAYKDNGTRSGPCVEGGPDNVAQQFYDYRILHRSNDITALRPYLSDKLATLLSDASRDNNHRELLTNDPFSSRTTLPDSAHVASASTIPNRDARNIPLRVDLKQGDQGWQDEVLMIQEGQCWVIDDVRYLGGSVHATAGTLRQSIENREGHHHHHH | soluble |
| MGSDKIHHHHHHMEKENIMTVDIEDFKKSQHILDYIDDDFAIVNSLDGIPYSNDTVRLNCFLIAVCAEGCIQLDINYRTYQLQAGDLLLGLPNTLISRTMLSPKYKIRLAGFSTRFLQRIIKMEKKTWNTAAHIHNNPVKSISEGGDDPVFRFYRDLIVAKINDEPHYYHREVMQHLFSALFCEMLGQLHKEIDAPDKGDSPKEGIKQADYTLRKFVELLSKDKGMHRSVSYYADALCYTPKHFSKVIKQACGRTPLDLINETTIEHIKYRLKRSDKSVKEIAEEFNFPNQSFFGKYVKMHLGTSPANYRNREDE | not soluble |
| MGSDKIHHHHHHMTHDTSPIHRTIELPDELLVGAIDTHIHSGPWLKSCPGRLDPFQIAEQAKQAGMRAVVFYDHTFGNSAGTSWMVRRSVPGIDVYGGIILTTNFGGMNPRAVKTALHYGDGAKFVHFGTHCTYHMASREGSYVDGKPVPFKDLYPKFAEQELARAIRIPLDGPVPGELEEILGLVAGHPDVYLNTGHISPGEVMRLAELAERFGIRKMIVAHPARAWLSTAQQKDLSARGFFLEGSVSDWLFHRGLPRTNYYVEREYADEIAGIANEPQFQGVVQWASQLREVGLANVVLGTDYGIGSCPAPREGMRLLISTLLDLQFSLAEIELLTRRNPARLLGLE | not soluble |
| MYGPGYAPYYGSPYGDPCYGPAYGPAYGPTYVQPIAQPVYVHDTRAEEACCAGACCMALFCCCAMNS | soluble |
| MGSDKIHHHHHHMKNLLSTREVAQFLGVNEKMVYTLISDKGLPATKVTGKWLFPAHLVEQWVENSTINFPRRHESAPPAEGVLLVAGSNDILFERTLRLFMDAQPDYIAAFANMGSMGGIKALRRGVCHMATSHLKQEDGAEYNFAHAERELEERPAVVNFCLREQGLLVPRGNPAGISCVADVAGGGLTVANRPLGTGTRLLFDSELAAAGINPARLKGYENEFSRHMDVGLEVLSGRADTAPAIRAVAGLLGLDFIPLGWERFDLLIPRDTFFERHIQLFMGLFTTPEFAALAGQLEGYDTSRAGRVVFPGETLRETRR | not soluble |
| MSLKQADELRFNEDGLIPAIVQDAASKEVLTLAYMNKESYEKTLETKETWFYSRSRQALWHKGETSGNTQAVKGIRYDCDQDALLVLVEPSGPACHTGSYSCFTKEQTEEQAADRFGIMNELERVIAERQAEMPEGAYTTYLFREGVDKILKKVGEEASEVIIAAKNRDHEELKWEAADLLYHLLVLLREQSLPLDDVLDVLKKRHSEIEEEGHHHHHH | soluble |
| MALLWQLARNAEGDDPTNLESALIGKPVPKFRLESLDNPGQFYQADVLTQGKPVLLNVWATWCPTCRAEHQYLNQLSAQGIRVVGMNYKDDRQKAISWLKELGNPYALSLFDGDGMLGLDLGVYGAPETFLIDGNGIIRYRHAGDLNPRVWEEEIKPLWEKYSKEAAQ | soluble |
| MTVQVFHTLFLTNDCGDHVVLINTREIALPGDEWVKRVYFHHTGYPGGASWTLAWQLHEKDPTMVMKKAVYNSMRGNLQRRHTMQRLHLFADDQVPEEILQNVTNQIRTPRSIPQRLDHIDKETLENFPNIMDYPKDYILRLEHHHHHH | not soluble |
| MGSDKIHHHHHHMLMDSLQEIICEKRTYTRLYHSHKHAYSQFLFPLEGSIDLETEGRQVKLNPDHFLYIPPQCEHRFRSIGRNECLVLDVPLHAMKIDEYRAGSGIEAALDPFWSSIRYLLTEEAKAGTANSLHMLVQYIKEKLQSHSYASIAYIHSHLFERLTIKKLAEIEHYHPAYYSSWFKKQTGKSPQNYIADLRLEEAKRMLMERNETLTVVSEALGFQNLSSFTRWFTKSTGMPPRLYRNTLYSDKK | not soluble |
| MSMLSMDGIVAGGGSSSGGGERSFVLEQKMFNTGPQNKALPTVQSSGSSSNHAPIVGESPLGTVSSTMATGDTGRVGNVTYMSSGMLGATQFMPQNSSHPSTSVMMQQVPPQNGGATRSSPTEMQQCMQAMSEDSIEMRDYNSGVHHMHPHQMQMQQQQQHHQQQYNMSYHNHQQQMQQMHYHQQQQQYQQQQAQHHQMYAPQIQQQQQQPQQQSQQQSAQQPQQSSAALQHVNESSNLSSAGSISDREPEQHGGTPQRPTAPQSSTATDKKTRKRRKAGPTEDQATPKQERKITEFMKVGGEVASGNSVARCLLTEYHQNQGSPKRQPAVQQNGSNSYDSQQQQPQMNQHEMQNSYWGVATPSLGVNNRGTPTPTQQQHYSSDSNSNSNQSPPGQGNQSGRMVRTIDEETQTDSSLSQANPQNADEVAKMNRIIEDHRRQIEELNSKNSLERRKNEASKETIKRLLIDKNQIERKALRDKTAADSPRIGCFKTTRTGDSFRDQWVDGWAFAEMDKKTEQINAERNEIASASALLKKRKPLGIGKEPKRPQAVNSQNDSNGMQPSTSSNTNGDDAIFRRPEEPKEIQYQEYIELDEIYKLRREHLRKEETDLSMEKERLEKEKQHHVRELKRASNESASQFNDHRLLHKRYLMLNLLGKGGFSEVWKAFDIEENRYVACKIHHVNKDWKEEKKANYVKHAMREKDIHKSLDHCRIVKQYDLLTIDNHSFCTVLEYVPGNDLDFYLKQNRSISEKEARSIIMQVVSALVYLNEKSTPIIHYDLKPANILLESGNTSGAIKITDFGLSKIMEGESDDHDLGIELTSQFAGTYWYLPPETFIVPPPKITCKVDVWSIGVIFYQCIYGKKPFGNDLTQQKILEYNTIINAREVSFPSKPQVSSAAQDFIRRCLQYRKEDRADVFELAKHELFRPRGAIRASVAGSVSSPSIPRSPSVNREDDNM | not soluble |
| MGIRPSADEQDQCFMTRITIVTDAWHPQVNGVVRSIENTNTELARLGVDVRMVTPQSFYSIPCPTYPEIRLSVAGYRRVAVEIEKSQPSFVHIATEGPLGFMARRWCVKNHMRFSTSYHTRFPEYVAARFPVPESWLYAFVRWFHNGGNTCMVATPSLETELEARGVRNLKRWSRGIDAELFHPRTKTKLPFDLPRPIFMTVGRVAVEKNLPEFLDLDLPGSKIVIGDGPARYELQEKYPDVLFTGIKTGEELADAYAQADVFVFPSKTDTFGNTILEALASGVPVAAFPVTGPIDILGGNPAAGALDNNLRDACLAALHCSPQAALALSKSYSWEKASRQFLDNVIHAAGKSLPLLSRSRLAAAALEHHHHHH | not soluble |
| ANQQTSGKVLYEGKEFDYVFSIDVNEGGPSYKLPYNTSDDPWLTAYNFLQKNDLNPMFLDQVAKFIIDNTKGQMLGLGNP | soluble |
| MGSDKIHHHHHHMKLDDCQLLIHVHKAGTMRGAARSLHLSQPAISQRLKQMEDLWGGAIFIRTHKKLLLTPLGEKVLTFAQETLWRTERLREELEQMKGSVSGRLSLGISSVVSHYLIPPLLEKYTKAYPRVNIELISTTSDQIRRTFSSYHVAIFRGDRLPEQASHLLLADPLYLVFDKDIPIEKRPLIQWKSDPSLEALIQAWMRSVTSFTFRGHVSVDQIETCKQLMLRGVGAAILPEMAIKDVSDQCFHKLPLQLDNQPLERQTWVLYEEEALSLPQVEAFLQLLPLK | not soluble |
| MGSDKIHHHHHHMSLLINLSFAPLQPTGWLTYSLNLLPHIKYLGVNVLSPREIPEVKVYQSPTNITTECGIKGHFQRLMWVQFKLPSFYKKLKSQLLFSPIPEVPLFSRCRSIVTIHDLIPLRFPQEFSAAQLFYCRNYLPAVIKQSEHIICNSLSTAHDIQNFLGVPEKKITITSLAIDTENFKFLDLPKKNYFLYYGRHNIYKNLNRIIAAFAALPNKDYELWLAGPNDARYTPTLQAQVEELGITHRVKFLDYVSYSELPVIINQAIALVFPSLWEGFGFPVLEALACGTPVITSNLSSLPEVAGDAAILINPYNTAEITDAMQNIANDVKLQSHLSTQGIARANQFSWERTGKATSEVLSRYL | not soluble |
| MPMISCDMAYGRTDEQKRALSAGLLRVISEATGEPRENIFFVIREGSGINFVEHGEHLPDYVPGNANDKALIAKLK | soluble |
